The record followed here is patent publication US20160068605A1 (Janssen / Centocor, published 2016).

Sequences and labels used below:
T1: cyno CD123 ECD displayed on pDisplay-transfected cells (cynomolgus monkey)
T1 construct: ECD anchored on the surface of stably transfected HEK293 cells; also called cynoCD123 SP1 cells; cynoCD123 cells
T1 chain: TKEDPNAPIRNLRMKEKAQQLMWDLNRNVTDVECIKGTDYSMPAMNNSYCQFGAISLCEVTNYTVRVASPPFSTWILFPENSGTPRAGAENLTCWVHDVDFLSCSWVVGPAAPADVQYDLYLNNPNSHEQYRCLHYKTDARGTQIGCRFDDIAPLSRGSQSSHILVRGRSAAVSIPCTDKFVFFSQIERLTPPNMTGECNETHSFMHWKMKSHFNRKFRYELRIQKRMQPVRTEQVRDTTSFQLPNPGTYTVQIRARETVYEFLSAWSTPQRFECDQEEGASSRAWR

T2: human CD123 SP2 ECD displayed on pDisplay-transfected cells (human, UniProt P26951 101-305)
T2 construct: ECD anchored on the surface of stably transfected HEK293 cells; also called hCD123 SP2 cells; pDisplay CD123SP2
T2 sequence: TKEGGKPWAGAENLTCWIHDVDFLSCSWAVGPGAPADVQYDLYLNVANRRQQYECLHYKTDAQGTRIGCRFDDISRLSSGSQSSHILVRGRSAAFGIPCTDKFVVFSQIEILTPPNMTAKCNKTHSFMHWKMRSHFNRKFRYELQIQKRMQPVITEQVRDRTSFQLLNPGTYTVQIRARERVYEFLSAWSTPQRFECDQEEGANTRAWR

T3: Recombinant human CD123 SP1 ECD-His tag protein (human, UniProt P26951 20-305)
T3 construct: bought from R&D Systems (#301-R3/CF); biotinylated for some assays; also called rhCD123 SP1; huCD123 ECD SP1
T3 sequence: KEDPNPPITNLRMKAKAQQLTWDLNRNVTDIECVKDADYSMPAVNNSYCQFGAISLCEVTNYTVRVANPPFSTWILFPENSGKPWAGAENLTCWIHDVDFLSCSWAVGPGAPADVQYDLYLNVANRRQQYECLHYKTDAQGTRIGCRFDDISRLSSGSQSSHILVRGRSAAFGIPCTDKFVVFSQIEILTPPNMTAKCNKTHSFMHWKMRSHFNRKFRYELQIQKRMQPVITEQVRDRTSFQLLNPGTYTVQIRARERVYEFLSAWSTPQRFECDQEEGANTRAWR

T4: Recombinant human CD123 SP2 ECD protein (human, UniProt P26951 101-303)
T4 construct: also called rhCD123 SP2; CD123 ECD SP2
T4 sequence: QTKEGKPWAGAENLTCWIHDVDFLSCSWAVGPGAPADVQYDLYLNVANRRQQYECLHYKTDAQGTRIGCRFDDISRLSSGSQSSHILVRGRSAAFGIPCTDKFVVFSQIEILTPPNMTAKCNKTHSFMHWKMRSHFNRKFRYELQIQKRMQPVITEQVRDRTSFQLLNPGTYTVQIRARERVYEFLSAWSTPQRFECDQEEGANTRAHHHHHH

B1: CD123 null 1 (bispecific antibody, human IgG4 S228P, lambda, F234A L235A)
heavy: EVQLVESGGGLVQPGGSLRLSCAASGFTFNTYAMNWVRQAPGKGLEWVARIRSKYNNYATYYAASVKGRFTISRDDSKNSLYLQMNSLKTEDTAVYYCARHGNFGNSYVSWFAYWGQGTLVTVSSASTKGPSVFPLAPCSRSTSESTAALGCLVKDYFPEPVTVSWNSGALTSGVHTFPAVLQSSGLYSLSSVVTVPSSSLGTKTYTCNVDHKPSNTKVDKRVESKYGPPCPPCPAPEAAGGPSVFLFPPKPKDTLMISRTPEVTCVVVDVSQEDPEVQFNWYVDGVEVHNAKTKPREEQFNSTYRVVSVLTVLHQDWLNGKEYKCKVSNKGLPSSIEKTISKAKGQPREPQVYTLPPSQEEMTKNQVSLTCLVKGFYPSDIAVEWESNGQPENNYKTTPPVLDSDGSFLLYSKLTVDKSRWQEGNVFSCSVMHEALHNHYTQKSLSLSLGK
light: QTVVTQEPSLTVSPGGTVTLTCRSSTGAVTTSNYANWVQQKPGQAPRGLIGGTNKRAPGTPARFSGSLLGGKAALTLSGVQPEDEAEYYCALWYSNLWVFGGGTKLTVLGQPKAAPSVTLFPPSSEELQANKATLVCLISDFYPGAVTVAWKADSSPVKAGVETTTPSKQSNNKYAASSYLSLTPEQWKSHRSYSCQVTHEGSTVEKTVAPTECS
VH: not shown
VL: not shown
notes: also called B21M IgG4 x CD3B219
B2: CD123 null 3 (bispecific antibody, human IgG4 S228P, lambda, F234A L235A)
heavy: B1 heavy with V5L, A64D, D76N, S80T, K89R, T90A, A99V, R100K
light: B1 light
VH: not shown
VL: not shown
notes: also called B21M IgG4 x CD3B218
B3: CD123 null 4 (bispecific antibody, human IgG4 S228P, lambda, F234A L235A)
heavy: B1 heavy with R19K, P41S, A49G, N57A, S80T, L81A, A99T
light: B1 light with T2A, V80A
VH: not shown
VL: not shown
notes: also called B21M IgG4 x CD3B220
B4: I3RB34 (antibody, IgG1, V domains shown)
VH: QVQLVQSGAEVKKPGSSVKVSCKASGGTFSSYAISWVRQAPGQGLEWMGGIIPIFGTANYAQKFQGRVTITADESTSTAYMELSSLRSEDTAVYYCARGWSYYRLDYWGQGTLVTVSS
VL: EIVLTQSPATLSLSPGERATLSCRASQSVDKWLAWYQQKPGQAPRLLIYYASNRATGIPARFSGSGSGTDFTLTISSLEPEDFAVYYCQQFDRAPFTFGQGTKVEIK
notes: IgG1; also called 13RB34
B5: I3RB24 (antibody, IgG1, V domains shown)
VH: QVQLVQSGAEVKKPGSSVKVSCKASGGTFSSYAISWVRQAPGQGLEWMGGIIPIFGTANYAQKFQGRVTITADESTSTAYMELSSLRSEDTAVYYCARHTDAWGYRLDYWGQGTLVTVSS
VL: not shown
notes: IgG1
B6: I3RB11 (antibody, IgG1, V domains shown)
VH: QVQLVQSGAEVKKPGSSVKVSCKASGGTFSSYGISWVRQAPGQGLEWMGGIIPIFGTANYAQKFQGRVTITADESTSTAYMELSSLRSEDTAVYYCARDLFSWRYSNFDYWGQGTLVTVSS
VL: not shown
notes: IgG1
B7: I3RB29 (antibody, IgG1, V domains shown)
VH: B5 VH with H99D, T100S, D101R, A102I, G104S, Y105F, R106S
VL: DIQMTQSPSSLSASVGDRVTITCRASQSIGEWLNWYQQKPGKAPKLLIYAASSLQSGVPSRFSGSGSGTDFTLTISSLQPEDFATYYCQQYYHFPLTFGQGTKVEIK
notes: IgG1
B8: I3RB38 (antibody, IgG1, V domains shown)
VH: B6 VH with F101M, S102I, Y105F, S106E
VL: not shown
notes: IgG1
B9: I3RB7 (antibody, IgG1, V domains shown)
VH: QVQLVQSGAEVKKPGSSVKVSCKASGGTFSSYAISWVRQAPGQGLEWMGGIIPIFGTANYAQKFQGRVTITADESTSTAYMELSSLRSEDTAVYYCARGKRWLADAGDFDYWGQGTLVTVSS
VL: not shown
notes: IgG1; also called I3RB07

Changes are numbered by the printed parent chain. Names may count otherwise.

The target in one assay is T5, cell-surface CD3 epsilon on primary cynomolgus T cells (cynomolgus monkey, UniProt Q95LI5 22-198).
T5 construct: whole, on cells; also called cynomolgus CD3e; Cyno T-cells
T5 sequence (Q95LI5 22-198): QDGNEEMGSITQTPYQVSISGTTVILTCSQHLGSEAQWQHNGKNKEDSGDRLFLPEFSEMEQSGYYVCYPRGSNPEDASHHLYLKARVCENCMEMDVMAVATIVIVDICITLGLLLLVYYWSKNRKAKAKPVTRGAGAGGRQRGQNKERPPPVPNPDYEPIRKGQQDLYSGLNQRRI
Nature of the assay: flow cytometry competition with labeled CD3B146 on T cells. From the text: (§1) The format involved competition binding using a fixed concentration of labeled anti-CD3 mAb of known affinity and increasing concentrations of unlabeled test Abs (Ashkenazi A et al. PNAS: 88:10535, 1991.).
A general note: In flow cytometry, cells or beads pass a laser one at a time.
For B1, the equilibrium dissociation constant (Kd) is 13.4 nM.
On to B2, for which the Kd turned out to be 237 nM.
Same read-out and setting: the figure for B3 is 36.8 nM.

The target of a further assay is T6, cell-surface CD3 epsilon on primary human T cells (human, UniProt P07766 23-207).
T6 construct: whole, on cells; part of the CD3/TCR complex on the cells
T6 sequence (P07766 23-207): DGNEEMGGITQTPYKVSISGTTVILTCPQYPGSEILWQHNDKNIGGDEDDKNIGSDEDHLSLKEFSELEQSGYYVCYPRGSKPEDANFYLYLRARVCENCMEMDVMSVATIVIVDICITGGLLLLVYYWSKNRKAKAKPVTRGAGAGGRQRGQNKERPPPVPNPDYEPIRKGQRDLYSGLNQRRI
The assay is described as above.
Text: as §1
Consider B1, for which the Kd was 13.2 nM.
As to B2, the Kd is 200 nM.
Turning to B3, the Kd was 48.6 nM.

The target of a further assay is T1, cyno CD123 ECD displayed on …. Kind of assay: MSD cell binding on 293F pDisplay cells; fold change over background; parental 293F cells as control. The procedure:
(§2) The object of the screening assay was to identify antibodies that bound to cells expressing hCD123 SP1 and SP2 as well as cross reactivity with cells expressing cynoCD123 SP1.
(§3) Cells were immobilized and phages were assayed in triplicate. […] 5000 cells per well were plated into a 384 well plate (MA6000, cat. L21XB, MSD) and allowed to adhere for 2 hr. Cells were then blocked with 20% FBS in PBS (Gibco) for 15 mins. Antibody supernatants were then added and left at RT for 1 hr. Cells were washed 3 times with PBS and a ruthenium labeled secondary antibody (Jackson Immuno Research) was then added at 1 μg/mL and incubated for 1 hr at room temperature. A further washing step was then applied and 35 μL per well of MSD Read buffer T (surfactant free) was then added and incubated for 30 min for detection. Plates were then read using Sector Imager 2400 (MSD). Data was normalized to controls and graphed using GraphPad Prism Version 5. A positive binder was determined to be a hit with a signal 3× greater than background (FIGS. 2A, B and C).
With B4, the binding result was “binds”.
For the molecule B5, the binding result is on record as “no binding (tested: 10 µg/mL)”.
With B6, the binding result is recorded as “no binding (tested: 10 µg/mL)”.

The target of a further assay is T2, human CD123 SP2 ECD displayed on …. The description is as above. The procedure: as §2, §3
As to B4, the binding result was “no binding (tested: 10 µg/mL)”.
As to B5, the binding result was “no binding (tested: 10 µg/mL)”.
For B7, the binding result is on record as “no binding (tested: 10 µg/mL)”.
On to B6, for which the binding result is given as “no binding (tested: 10 µg/mL)”.
Take B8: the binding result is reported as “no binding (tested: 10 µg/mL)”.
With B9, the binding result is “no binding (tested: 10 µg/mL)”.

For the next assay, the target named is T3, Recombinant human CD123 SP1 ECD-His tag …. Kind of assay: SPR ProteOn, captured mAb. The procedure:
(§4) The biosensor surface was prepared by covalently coupling Goat anti-Human IgG (Fc) to the surface of a GLC chip (BioRad) using the manufacturer instructions for amine-coupling chemistry. […] The RU immobilized also included a goat anti-mouse Fc antibody that was added to capture other antibodies not included in the ones reported here. Since the mixture was 1:1 about 50% of these RU immobilized are expected to be goat anti-human Fc. The kinetic experiments were performed at 25° C. in running buffer (PBS pH 7.4, 0.005% P20, 3 mM EDTA). […] The reference spots (Goat anti-Human IgG (Fc)-modified surface) containing no candidate captured were used as a reference surface. Capture of mAb was followed by 3 min injection (association phase) of antigen at 40 μL/min, followed by 10 min of buffer flow (dissociation phase). […] Data was processed on the instrument software. Double reference subtraction of the data was performed by subtracting the curves generated by buffer injection from the reference-subtracted curves for analyte injections. Kinetic analysis of the data was performed using 1:1 Langmuir binding model with group fit. The result for each mAb was reported in the format of Kₐ (kon or on-rate), Kd (koff or off-rate), KD (Equilibrium dissociation constant) (Table 5).
Take B4: the Kd is 56.8 nM, the koff came to 0.0283 s⁻¹ and the kon turned out to be 497000 M⁻¹ s⁻¹.
In the same order, the values of B5 are 201 nM, 0.226 s⁻¹ and 1.13e+06 M⁻¹ s⁻¹.
As to B7, the Kd came to 5.9 nM, the koff is 0.00132 s⁻¹ and the kon is 224000 M⁻¹ s⁻¹.
Consider B6, for which the Kd was found to be 2.89 nM, the koff is 0.00253 s⁻¹ and the kon is 874000 M⁻¹ s⁻¹.
As for B8, the Kd was 0.49 nM, the koff stood at 0.000434 s⁻¹ and the kon stood at 888000 M⁻¹ s⁻¹.
For the molecule B9, the Kd turned out to be 15.4 nM, the koff stood at 0.0147 s⁻¹ and the on-rate constant (kon) stood at 954000 M⁻¹ s⁻¹.

In another assay the target is T4, Recombinant human CD123 SP2 ECD protein. Kind of assay: SPR ProteOn, captured mAb. The procedure:
as §4
Take B4: the binding result was “no binding (tested: 400 nM)”.
With B5, the binding result is recorded as “no binding (tested: 400 nM)”.
For the molecule B7, the binding result is recorded as “no binding (tested: 400 nM)”.
For the molecule B6, the binding result is “no binding (tested: 400 nM)”.
B8: the binding result is recorded as “no binding (tested: 400 nM)”.
Regarding B9, the binding result was “no binding (tested: 400 nM)”.

For orientation: Kd means the constant that tells how readily two partners part at equilibrium. Usually koff stands for the first-order rate constant of dissociation. For orientation: kon means a measure of how fast the partners come together.
